System: HeLa Kyoto
Test: melting temperature (median over replicates), in situ; higher = more thermally stable
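Also: HeLa Kyoto cells synchronized by double thymidine or nocodazole block, proteins quantified by TMT10plex mass spectrometry, three independent biological replicates.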

Sequence | melting temperature (cell cycle stage: G1/S) [°C] | melting temperature (cell cycle stage: mitosis) [°C]
MPGPSPGLRRALLGLWAALGLGLFGLSAVSQEPFWADLQPRVAFVERGGSLWLNCSTNCPRPERGGLETSLRRNGTQRGLRWLARQLVDIREPETQPVCFFRCARRTLQARGLIRTFQRPDRVELMPLPPWQPVGENFTLSCRVPGAGPRASLTLTLLRGAQELIRRSFAGEPPRARGAVLTATVLARREDHGANFSCRAELDLRPHGLGLFENSSAPRELRTFSLSPDAPRLAAPRLLEVGSERPVSCTLDGLFPASEARVYLALGDQNLSPDVTLEGDAFVATATATASAEQEGARQLVCNVTLGGENRETRENVTIYSFPAPLLTLSEPSVSEGQMVTVTCAAGAQALVTLEGVPAAVPGQPAQLQLNATENDDRRSFFCDATLDVDGETLIKNRSAELRVLYAPRLDDSDCPRSWTWPEGPEQTLRCEARGNPEPSVHCARSDGGAVLALGLLGPVTRALSGTYRCKAANDQGEAVKDVTLTVEYAPALDSVGCPERITWLEGTEASLSCVAHGVPPPDVICVRSGELGAVIEGLLRVAREHAGTYRCEATNPRGSAAKNVAVTVEYGPRFEEPSCPSNWTWVEGSGRLFSCEVDGKPQPSVKCVGSGGATEGVLLPLAPPDPSPRAPRIPRVLAPGIYVCNATNRHGSVAKTVVVSAESPPEMDESTCPSHQTWLEGAEASALACAARGRPSPGVRCSREGIPWPEQQRVSREDAGTYHCVATNAHGTDSRTVTVGVEYRPVVAELAASPPGGVRPGGNFTLTCRAEAWPPAQISWRAPPGALNIGLSSNNSTLSVAGAMGSHGGEYECAATNAHGRHARRITVRVAGPWLWVAVGGAAGGAALLAAGAGLAFYVQSTACKKGEYNVQEAESSGEAVCLNGAGGGAGGAAGAEGGPEAAGGAAESPAEGEVFAIQLTSA [ICAM5] | 54.5 | 
MARRRRRACIALFLVLLFAFGTLMGLRTLKAPDGLPALGPGLELAPFERRPEGAPAPAARAPAAPAAPPPPPPPPRTADPGGSPGPAPAEAEPAPVQSLRVYSDLHAFYYSWYGSPRREGHYIHWDHVMVPHWDPKISASYPRGRHSPPDDLGSSFYPELGPYSSRDPEVLREHMTQLKEAAIGVLVLSWYPPGMADDNGEPSDDLVPAILDTAHQYSIQVAFHIQPYKGRDDITVHDNIKYIIDTYGSHGAFYRYKNSMGKSLPLFYIYDSYLTSPEAWAHLLTPNGPHSIRNTPYDGVFIALLVEEGHTHDILAAGFDGMYTYFASNGFSFGSSHQNWKAVKNFCDANNLMFIPSVGPGYIDTSIRPWNNHNTRNRVNGKYYETALQAALTVRPEIVSITSFNEWHEGTQIEKAIPKKTPTRLYLDYLPHQPSLYLELTRRWAEHFIKEKEQWLM [MANEAL] |  | 54.1
MQSREDAPRSRRLASPRGGKRPKKIHKPTVSAFFTGPEELKDTAHSAALLAQLKSFYDARLLCDVTIEVVTPGSGPGTGRLFPCNRNVLAAACPYFKSMFTGGMYESQQASVTMHDVDAESFEVLVDYCYTGRVSLSEANVERLYAASDMLQLEYVREACASFLARRLDLTNCTAILKFADAFGHRKLRSQAQSYIAQNFKQLSHMGSIREETLADLTLAQLLAVLRLDSLDVESEQTVCHVAVQWLEAAPKERGPSAAEVFKCVRWMHFTEEDQDYLEGLLTKPIVKKYCLDVIEGALQMRYGDLLYKSLVPVPNSSSSSSSSNSLVSAAENPPQRLGMCAKEMVIFFGHPRDPFLCCDPYSGDLYKVPSPLTCLAHTRTVTTLAVCISPDHDIYLAAQPRTDLWVYKPAQNSWQQLADRLLCREGMDVAYLNGYIYILGGRDPITGVKLKEVECYNVKRNQWALVAPLPHSFLSFDLMVIRDYLYALNSKRMFCYDPSHNMWLKCVSLKRNDFQEACVFNEEIYCICDIPVMKVYNPVRAEWRQMNNIPLVSETNNYRIIKHGQKLLLITSRTPQWKKNRVTVYEYDIRGDQWINIGTTLGLLQFDSNFFCLSARVYPSCLEPGQSFLTEEEEIPSESSTEWDLGGFSEPDSESGSSSSLSDDDFWVRVAPQ [KBTBD6] | 50.6 | 51.1
MAMEGYWRFLALLGSALLVGFLSVIFALVWVLHYREGLGWDGSALEFNWHPVLMVTGFVFIQGIAIIVYRLPWTWKCSKLLMKSIHAGLNAVAAILAIISVVAVFENHNVNNIANMYSLHSWVGLIAVICYLLQLLSGFSVFLLPWAPLSLRAFLMPIHVYSGIVIFGTVIATALMGLTEKLIFSLRDPAYSTFPPEGVFVNTLGLLILVFGALIFWIVTRPQWKRPKEPNSTILHPNGGTEQGARGSMPAYSGNNMDKSDSELNSEVAARKRNLALDEAGQRSTM [CYBRD1] |  | 53.6
MSKAHPPELKKFTDKKFSLKLNGGRHVQGILRGFDPFMNLVIDECVEMATSGQQKNIGMVEIRGNSIIMLEALERV [SNRPGP15] | 53.6 | 54
MSAARESHPHGVKRSASPDDDLGSSNWEAADLGNEERKQKFLRLMGAGKKEHTGRLVIGDHKSTSHFRTGEEDKKINEELESQYQQSMDSKLSGRYRRHCGLGFSEVEDHDGEGDVAGDDDDDDDDSPDPESPDDSESDSESEKEESAEELQAAEHPDEVEDPKNKKDAKSNYKMMFVKSSGS [C11ORF58] | 55 | 
MLVTAYLAFVGLLASCLGLELSRCRAKPPGRACSNPSFLRFQLDFYQVYFLALAADWLQAPYLYKLYQHYYFLEGQIAILYVCGLASTVLFGLVASSLVDWLGRKNSCVLFSLTYSLCCLTKLSQDYFVLLVGRALGGLSTALLFSAFEAWYIHEHVERHDFPAEWIPATFARAAFWNHVLAVVAGVAAEAVASWIGLGPVAPFVAAIPLLALAGALALRNWGENYDRQRAFSRTCAGGLRCLLSDRRVLLLGTIQALFESVIFIFVFLWTPVLDPHGAPLGIIFSSFMAASLLGSSLYRIATSKRYHLQPMHLLSLAVLIVVFSLFMLTFSTSPGQESPVESFIAFLLIELACGLYFPSMSFLRRKVIPETEQAGVLNWFRVPLHSLACLGLLVLHDSDRKTGTRNMFSICSAVMVMALLAVVGLFTVVRHDAELRVPSPTEEPYAPEL [MFSD5] |  | 54.9
MPSETPQAEVGPTGCPHRSGPHSAKGSLEKGSPEDKEAKEPLWIRPDAPSRCTWQLGRPASESPHHHTAPAKSPKILPDILKKIGDTPMVRINKIGKKFGLKCELLAKCEFFNAGGSVKDRISLRMIEDAERDGTLKPGDTIIEPTSGNTGIGLALAAAVRGYRCIIVMPEKMSSEKVDVLRALGAEIVRTPTNARFDSPESHVGVAWRLKNEIPNSHILDQYRNASNPLAHYDTTADEILQQCDGKLDMLVASVGTGGTITGIARKLKEKCPGCRIIGVDPEGSILAEPEELNQTEQTTYEVEGIGYDFIPTVLDRTVVDKWFKSNDEEAFTFARMLIAQEGLLCGGSAGSTVAVAVKAAQELQEGQRCVVILPDSVRNYMTKFLSDRWMLQKGFLKEEDLTEKKPWWWHLRVQELGLSAPLTVLPTITCGHTIEILREKGFDQAPVVDEAGVILGMVTLGNMLSSLLAGKVQPSDQVGKVIYKQFKQIRLTDTLGRLSHILEMDHFALVVHEQIQYHSTGKSSQRQMVFGVVTAIDLLNFVAAQERDQK [CBS] | 55 | 55.8
MAEVPPGPSSLLPPPAPPAPAAVEPRCPFPAGAALACCSEDEEDDEEHEGGGSRSPAGGESATVAAKGHPCLRCPQPPQEQQQLNGLISPELRHLRAAASLKSKVLSVAEVAATTATPDGGPRATATKGAGVHSGERPPHSLSSNARTAVPSPVEAAAASDPAAARNGLAEGTEQEEEEEDEQVRLLSSSLTADCSLRSPSGREVEPGEDRTIRYVRYESELQMPDIMRLITKDLSEPYSIYTYRYFIHNWPQLCFLAMVGEECVGAIVCKLDMHKKMFRRGYIAMLAVDSKYRRNGIGTNLVKKAIYAMVEGDCDEVVLETEITNKSALKLYENLGFVRDKRLFRYYLNGVDALRLKLWLR [NAA30] | 51.9 | 
MSSSSSSPRETYEEDREYESQAKRLKTEEGEIDYSAEEGENRREATPRGGGDGGGGGRSFSQPEAGGSHHKVSVSPVVHVRGLCESVVEADLVEALEKFGTICYVMMMPFKRQALVEFENIDSAKECVTFAADEPVYIAGQQAFFNYSTSKRITRPGNTDDPSGGNKVLLLSIQNPLYPITVDVLYTVCNPVGKVQRIVIFKRNGIQAMVEFESVLCAQKAKAALNGADIYAGCCTLKIEYARPTRLNVIRNDNDSWDYTKPYLGRRDRGKGRQRQAILGEHPSSFRHDGYGSHGPLLPLPSRYRMGSRDTPELVAYPLPQASSSYMHGGNPSGSVVMVSGLHQLKMNCSRVFNLFCLYGNIEKVKFMKTIPGTALVEMGDEYAVERAVTHLNNVKLFGKRLNVCVSKQHSVVPSQIFELEDGTSSYKDFAMSKNNRFTSAGQASKNIIQPPSCVLHYYNVPLCVTEETFTKLCNDHEVLTFIKYKVFDAKPSAKTLSGLLEWECKTDAVEALTALNHYQIRVPNGSNPYTLKLCFSTSSHL [HNRNPLL] | 47.6 | 49.7
MGAKQSGPAAANGRTRAYSGSDLPSSSSGGANGTAGGGGGARAAAAGRFPAQVPSAHQPSASGGAAAAAAAPAAPAAPRSRSLGGAVGSVASGARAAQSPFSIPNSSSGPYGSQDSVHSSPEDGGGGRDRPVGGSPGGPRLVIGSLPAHLSPHMFGGFKCPVCSKFVSSDEMDLHLVMCLTKPRITYNEDVLSKDAGECAICLEELQQGDTIARLPCLCIYHKGCIDEWFEVNRSCPEHPSD [ZNRF2] | 52.7 | 55.1
MAGSDTAPFLSQADDPDDGPVPGTPGLPGSTGNPKSEEPEVPDQEGLQRITGLSPGRSALIVAVLCYINLLNYMDRFTVAGVLPDIEQFFNIGDSSSGLIQTVFISSYMVLAPVFGYLGDRYNRKYLMCGGIAFWSLVTLGSSFIPGEHFWLLLLTRGLVGVGEASYSTIAPTLIADLFVADQRSRMLSIFYFAIPVGSGLGYIAGSKVKDMAGDWHWALRVTPGLGVVAVLLLFLVVREPPRGAVERHSDLPPLNPTSWWADLRALARNPSFVLSSLGFTAVAFVTGSLALWAPAFLLRSRVVLGETPPCLPGDSCSSSDSLIFGLITCLTGVLGVGLGVEISRRLRHSNPRADPLVCATGLLGSAPFLFLSLACARGSIVATYIFIFIGETLLSMNWAIVADILLYVVIPTRRSTAEAFQIVLSHLLGDAGSPYLIGLISDRLRRNWPPSFLSEFRALQFSLMLCAFVGALGGAAFLGTAIFIEADRRRAQLHVQGLLHEAGSTDDRIVVPQRGRSTRVPVASVLI [SPNS1] |  | 62
MEPGTNSFRVEFPDFSSTILQKLNQQRQQGQLCDVSIVVQGHIFRAHKAVLAASSPYFCDQVLLKNSRRIVLPDVMNPRVFENILLSSYTGRLVMPAPEIVSYLTAASFLQMWHVVDKCTEVLEGNPTVLCQKLNHGSDHQSPSSSSYNGLVESFELGSGGHTDFPKAQELRDGENEEESTKDELSSQLTEHEYLPSNSSTEHDRLSTEMASQDGEEGASDSAEFHYTRPMYSKPSIMAHKRWIHVKPERLEQACEGMDVHATYDEHQVTESINTVQTEHTVQPSGVEEDFHIGEKKVEAEFDEQADESNYDEQVDFYGSSMEEFSGERSDGNLIGHRQEAALAAGYSENIEMVTGIKEEASHLGFSATDKLYPCQCGKSFTHKSQRDRHMSMHLGLRPYGCGVCGKKFKMKHHLVGHMKIHTGIKPYECNICAKRFMWRDSFHRHVTSCTKSYEAAKAEQNTTEAN [ZBTB43] |  | 55
MAPQRRAATKAPEGNGAAERRNRSSTKKDRAPREVQRLWQRPWLRTAGLGAGFVLTALLLWSSLGADDGVAEVLARRGEVVAGRFIEVPCSEDYDSHRRFEGCTPRKCGRGVTDVVITREEAERIRSVAEKGLSLGGSDGGASILDLHSGALSVGKHFVNLYRYFGDKIQNIFSEEDFRLYREVRQKVQLTIAEAFGISASSLHLTKPTFFSRINSTEARTAHDEYWHAHVDKVTYGSFDYTSLLYLSNYLEDFGGGRFMFMEEGANKTVEPRAGRVSFFTSGSENLHRVEKVHWGTRYAITIAFSCNPDHGIEDPAFP [OGFOD3] |  | 53.1

Source: the supplement of paper PMC5998384
